Results on eight molecules are retold here after patent publication US20150344570A1 (published 2015).

Sequences and labels used below:
B1: GpH7-A5/GpH7-B3 variant E269_19Q/GpL16-k0 (antibody, human IgG1, kappa)
heavy 1: not shown
heavy 2: not shown
light: DIVMTQSPLSLPVTPGEPASISCQASESLVHSNRNTYLHWYLQKPGQSPQLLIYKVSNRFSGVPDRFSGSGSGTDFTLKISRVEAEDVGVYYCSQNTHVPPTFGQGTKVEIERTVAAPSVFIFPPSDEQLKSGTASVVCLLNNFYPREAKVQWKVDNALQSGNSQESVTEQDSKDSTYSLSSTLTLSKADYEKHKVYACEVTHQGLSSPVTKSFNRGEC
notes: also called He Ab E269_19Q
B2: GpH7-A5/GpH7-B3 variant E269_20W/GpL16-k0 (antibody, human IgG1, kappa)
heavy 1: not shown
heavy 2: not shown
light: DIVMTQSPLSLPVTPGEPASISCQASESLVHSNRNTYLHWYLQKPGQSPQLLIYKVSNRFSGVPDRFSGSGSGTDFTLKISRVEAEDVGVYYCSQNTHVPPTFGQGTKVEIERTVAAPSVFIFPPSDEQLKSGTASVVCLLNNFYPREAKVQWKVDNALQSGNSQESVTEQDSKDSTYSLSSTLTLSKADYEKHKVYACEVTHQGLSSPVTKSFNRGEC
notes: also called He Ab E269_20W
B3: GpH7-A5/GpH7-B3 variant E333_01G/GpL16-k0 (antibody, human IgG1, kappa)
heavy 1: not shown
heavy 2: not shown
light: DIVMTQSPLSLPVTPGEPASISCQASESLVHSNRNTYLHWYLQKPGQSPQLLIYKVSNRFSGVPDRFSGSGSGTDFTLKISRVEAEDVGVYYCSQNTHVPPTFGQGTKVEIERTVAAPSVFIFPPSDEQLKSGTASVVCLLNNFYPREAKVQWKVDNALQSGNSQESVTEQDSKDSTYSLSSTLTLSKADYEKHKVYACEVTHQGLSSPVTKSFNRGEC
notes: also called He Ab E333_01G
B4: GpH7-A5/GpH7-B3 variant E333_04F/GpL16-k0 (antibody, human IgG1, kappa)
heavy 1: not shown
heavy 2: not shown
light: DIVMTQSPLSLPVTPGEPASISCQASESLVHSNRNTYLHWYLQKPGQSPQLLIYKVSNRFSGVPDRFSGSGSGTDFTLKISRVEAEDVGVYYCSQNTHVPPTFGQGTKVEIERTVAAPSVFIFPPSDEQLKSGTASVVCLLNNFYPREAKVQWKVDNALQSGNSQESVTEQDSKDSTYSLSSTLTLSKADYEKHKVYACEVTHQGLSSPVTKSFNRGEC
notes: also called He Ab E333_04F
B5: GpH7-A5/GpH7-B3 variant E333_02A/GpL16-k0 (antibody, human IgG1, kappa)
heavy 1: not shown
heavy 2: not shown
light: DIVMTQSPLSLPVTPGEPASISCQASESLVHSNRNTYLHWYLQKPGQSPQLLIYKVSNRFSGVPDRFSGSGSGTDFTLKISRVEAEDVGVYYCSQNTHVPPTFGQGTKVEIERTVAAPSVFIFPPSDEQLKSGTASVVCLLNNFYPREAKVQWKVDNALQSGNSQESVTEQDSKDSTYSLSSTLTLSKADYEKHKVYACEVTHQGLSSPVTKSFNRGEC
notes: also called He Ab E333_02A
B6: GpH7-A5/GpH7-B3 variant E333_05P/GpL16-k0 (antibody, human IgG1, kappa)
heavy 1: not shown
heavy 2: not shown
light: DIVMTQSPLSLPVTPGEPASISCQASESLVHSNRNTYLHWYLQKPGQSPQLLIYKVSNRFSGVPDRFSGSGSGTDFTLKISRVEAEDVGVYYCSQNTHVPPTFGQGTKVEIERTVAAPSVFIFPPSDEQLKSGTASVVCLLNNFYPREAKVQWKVDNALQSGNSQESVTEQDSKDSTYSLSSTLTLSKADYEKHKVYACEVTHQGLSSPVTKSFNRGEC
notes: also called He Ab E333_05P
B7: GpH7-A5/GpH7-B3 variant E333_03V/GpL16-k0 (antibody, human IgG1, kappa)
heavy 1: not shown
heavy 2: not shown
light: DIVMTQSPLSLPVTPGEPASISCQASESLVHSNRNTYLHWYLQKPGQSPQLLIYKVSNRFSGVPDRFSGSGSGTDFTLKISRVEAEDVGVYYCSQNTHVPPTFGQGTKVEIERTVAAPSVFIFPPSDEQLKSGTASVVCLLNNFYPREAKVQWKVDNALQSGNSQESVTEQDSKDSTYSLSSTLTLSKADYEKHKVYACEVTHQGLSSPVTKSFNRGEC
notes: also called He Ab E333_03V
B8: GpH7-A5/GpH7-B3 variant E333_06M/GpL16-k0 (antibody, human IgG1, kappa)
heavy 1: not shown
heavy 2: not shown
light: DIVMTQSPLSLPVTPGEPASISCQASESLVHSNRNTYLHWYLQKPGQSPQLLIYKVSNRFSGVPDRFSGSGSGTDFTLKISRVEAEDVGVYYCSQNTHVPPTFGQGTKVEIERTVAAPSVFIFPPSDEQLKSGTASVVCLLNNFYPREAKVQWKVDNALQSGNSQESVTEQDSKDSTYSLSSTLTLSKADYEKHKVYACEVTHQGLSSPVTKSFNRGEC
notes: also called He Ab E333_06M

In the assay the target is T1, FcγRIa (human, UniProt P12314 16-292).
T1 construct: extracellular domain; also called FcgRI; 1a
T1 sequence (P12314 16-292): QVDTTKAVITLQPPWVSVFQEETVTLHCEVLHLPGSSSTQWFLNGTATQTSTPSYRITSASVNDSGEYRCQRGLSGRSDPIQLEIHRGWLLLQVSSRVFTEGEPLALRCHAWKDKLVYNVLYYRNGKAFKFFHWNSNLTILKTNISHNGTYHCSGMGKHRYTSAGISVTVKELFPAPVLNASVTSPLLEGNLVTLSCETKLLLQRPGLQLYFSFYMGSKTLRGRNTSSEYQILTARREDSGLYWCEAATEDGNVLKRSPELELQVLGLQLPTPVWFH
Description: SPR (Biacore); He Ab relative to HeCon Ab = 100. As to the method: Analysis of interaction between objective antibody and the FcγR was carried out using Biacore T100 (GE Healthcare). HBS-EP+ (GE Healthcare) was used as the running buffer, and the measurement temperature was set to 25° C. Chips produced by immobilizing the antigen peptide by the amine coupling method to a Series S Sencor Chip CM5 (GE Healthcare), or alternatively, chips produced by allowing preliminarily biotinylated antigen peptides to interact with and immobilize onto a Series S Sensor Chip SA (certified) (GE Healthcare) were used. Antibodies of interest were captured onto an antigen peptide-immobilized chip, and allowed to interact to each FcγR diluted with running buffer. To regenerate and repeatedly use the chip, the antibodies captured on the chip were washed off by reacting 10 mM glycine-HCl, pH 1.5.
(Surface plasmon resonance follows binding to a sensor surface in real time, without labels.)
For the molecule B1, the He/Con_1a is 105 % of control. For the molecule B2, the He/Con_1a is 105 % of control. Take B3: the He/Con_1a is 103 % of control. In the case of B4, the He/Con_1a was 102 % of control. As for B5, the He/Con_1a was 103 % of control. As to B6, the He/Con_1a is 102 % of control. With B7, the He/Con_1a is 105 % of control. With B8, the He/Con_1a was 102 % of control.
